From IntAct's records for PubMed 16614222

B1: Phospholipase D alpha 1 (Arabidopsis thaliana (Mouse-ear cress)), Q38882 (parent)
chain: MAQHLLHGTLHATIYEVDALHGGGVRQGFLGKILANVEETIGVGKGETQLYATIDLQKARVGRTRKIKNEPKNPKWYESFHIYCAHLASDIIFTVKDDNPIGATLIGRAYIPVDQVINGEEVDQWVEILDNDRNPIQGGSKIHVKLQYFHVEEDRNWNMGIKSAKFPGVPYTFFSQRQGCKVSLYQDAHIPDNFVPRIPLAGGKNYEPQRCWEDIFDAISNAKHLIYITGWSVYAEIALVRDSRRPKPGGDVTIGELLKKKASEGVRVLLLVWDDRTSVDVLKKDGLMATHDEETENFFRGSDVHCILCPRNPDDGGSIVQSLQISTMFTHHQKIVVVDSEMPSRGGSEMRRIVSFVGGIDLCDGRYDTPFHSLFRTLDTVHHDDFHQPNFTGAAITKGGPREPWHDIHSRLEGPIAWDVMYNFEQRWSKQGGKDILVKLRDLSDIIITPSPVMFQEDHDVWNVQLFRSIDGGAAAGFPESPEAAAEAGLVSGKDNIIDRSIQDAYIHAIRRAKDFIYVENQYFLGSSFAWAADGITPEDINALHLIPKELSLKIVSKIEKGEKFRVYVVVPMWPEGLPESGSVQAILDWQRRTMEMMYKDVIQALRAQGLEEDPRNYLTFFCLGNREVKKDGEYEPAEKPDPDTDYMRAQEARRFMIYVHTKMMIVDDEYIIIGSANINQRSMDGARDSEIAMGGYQPHHLSHRQPARGQIHGFRMSLWYEHLGMLDETFLDPSSLECIEKVNRISDKYWDFYSSESLEHDLPGHLLRYPIGVASEGDITELPGFEFFPDTKARILGTKSDYLPPILTT

Variants of: B1
Details: with xlg3_arath XLG3, Q9C516

Variant | effect of a mutation on the interaction
K564A | decreasing interaction
E563A | decreasing interaction
F565A | decreasing interaction
